The target of test [1] is recombinant ED-B domain of fibronectin, conjugated to Sepharose (UniProt P02751). In words: immunoreactivity of the labelled product (percent bound to ED-B Sepharose column, assay as in P-0168).
Test [2] shares this target. The experiment in a line: immunoreactivity of the labelled product, chloramine-T preparation (percent bound to ED-B Sepharose column, assay as in P-0168).
Test [3] has the same target. In words: immunoreactivity of the labelled product, Iodogen preparation (percent bound to ED-B Sepharose column, assay as in P-0168).
Test [4] has the same target. The experiment in a line: ED-B Sepharose column on plasma 144 h after i.v. injection of 125I-antibody, normalised to value before injection.
The target is the same in test [5]. In words: ED-B Sepharose column on plasma 6 h after i.v. injection of 125I-antibody, normalised to value before injection.
The target is the same in test [6]. The experiment in a line: percent of 125I-labelled antibody bound to ED-B Sepharose column, before injection.
Test [7] has the same target. In words: ED-B Sepharose column on plasma 3 h after i.v. injection of 125I-antibody, normalised to value before injection.
The target is the same in test [8]. In words: ED-B Sepharose column on plasma 72 h after i.v. injection of 125I-antibody, normalised to value before injection.
Test [9] shares this target. The experiment in a line: ED-B Sepharose column on plasma 24 h after i.v. injection of 125I-antibody, normalised to value before injection.
For test [10] the target is unchanged. The experiment in a line: ED-B Sepharose column on plasma 48 h after i.v. injection of 125I-antibody, normalised to value before injection.

Chain of recombinant ED-B domain of fibronectin, conjugated to Sepharose (P02751 1266-1356 limits assumed): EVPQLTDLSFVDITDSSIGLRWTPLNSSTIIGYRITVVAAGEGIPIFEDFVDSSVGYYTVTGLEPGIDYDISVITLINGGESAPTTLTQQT
Chain of radioiodinated (125I) L19-IgG1 (VH): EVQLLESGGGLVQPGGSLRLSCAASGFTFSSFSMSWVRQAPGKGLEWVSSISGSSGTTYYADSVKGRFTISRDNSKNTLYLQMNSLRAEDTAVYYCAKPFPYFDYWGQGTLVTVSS
Chain of radioiodinated (125I) L19-IgG1 (VL): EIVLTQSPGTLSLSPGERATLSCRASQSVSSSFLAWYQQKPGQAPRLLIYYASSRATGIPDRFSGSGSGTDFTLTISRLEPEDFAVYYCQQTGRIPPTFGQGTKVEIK
Chain of radioiodinated (125I) L19-SIP (VH): as the sequence (VH) above
Chain of radioiodinated (125I) L19-SIP (VL): as the sequence (VL) above
Chain of radioiodinated (125I) scFv(L19)2 (VH): as the sequence (VH) above
Chain of radioiodinated (125I) scFv(L19)2 (VL): as the sequence (VL) above
Chain of I-131-L19-SIP (VH): as the sequence (VH) above
Chain of I-131-L19-SIP (VL): as the sequence (VL) above
Chain of (3-(4-hydroxy-3-[131I]iodo-phenyl)-propionate)-L19-SIP (VH): as the sequence (VH) above
Chain of (3-(4-hydroxy-3-[131I]iodo-phenyl)-propionate)-L19-SIP (VL): as the sequence (VL) above
Chain of Tc-99m-L19-SIP (VH): as the sequence (VH) above
Chain of Tc-99m-L19-SIP (VL): as the sequence (VL) above
Chain of In-111-DOTA-C-Benzyl-p-NCS-ε-HN(Lys)-L19-SIP (VH): as the sequence (VH) above
Chain of In-111-DOTA-C-Benzyl-p-NCS-ε-HN(Lys)-L19-SIP (VL): as the sequence (VL) above
Chain of I-123-L19-SIP (VH): as the sequence (VH) above
Chain of I-123-L19-SIP (VL): as the sequence (VL) above
Chain of Re-188-L19-SIP (VH): as the sequence (VH) above
Chain of Re-188-L19-SIP (VL): as the sequence (VL) above
Chain of Lu-177-DOTA-C-Benzyl-p-NCS-ε-HN(Lys)-L19-SIP (VH): as the sequence (VH) above
Chain of Lu-177-DOTA-C-Benzyl-p-NCS-ε-HN(Lys)-L19-SIP (VL): as the sequence (VL) above
Chain of Y-88-MX-DTPA-ε-HN(Lys)-L19-SIP (VH): as the sequence (VH) above
Chain of Y-88-MX-DTPA-ε-HN(Lys)-L19-SIP (VL): as the sequence (VL) above
Chain of In-111-MX-DTPA-ε-HN(Lys)-L19-SIP (VH): as the sequence (VH) above
Chain of In-111-MX-DTPA-ε-HN(Lys)-L19-SIP (VL): as the sequence (VL) above
Chain of In-111-MX-DTPA-Maleimide-S(Cys)-L19-SIP-R (R=reduced) (VH): as the sequence (VH) above
Chain of In-111-MX-DTPA-Maleimide-S(Cys)-L19-SIP-R (R=reduced) (VL): as the sequence (VL) above
Chain of Tc-99m-MAG2-ε-HN(Lys)-L19-SIP (VH): as the sequence (VH) above
Chain of Tc-99m-MAG2-ε-HN(Lys)-L19-SIP (VL): as the sequence (VL) above
Chain of I-124-L19-SIP (VH): as the sequence (VH) above
Chain of I-124-L19-SIP (VL): as the sequence (VL) above

“(3-(4-hydroxy-3-[131I]iodo-phenyl)-propionate)-L19-SIP (from UniProt P01854 319-426) (antibody)”: in [1], the Immunoreactivity came to 69%.

For the substance “I-123-L19-SIP (from UniProt P01854 319-426) (antibody)”, the Immunoreactivity in test [1] was found to be 84%.

Turning to “I-124-L19-SIP (from UniProt P01854 319-426) (antibody)”, the Immunoreactivity in test [1] stood at 86%.

Take “I-131-L19-SIP (from UniProt P01854 319-426) (antibody)”: the Immunoreactivity in [2] came to 76%; in test [3], 78%.

Consider “In-111-DOTA-C-Benzyl-p-NCS-ε-HN(Lys)-L19-SIP (from UniProt P01854 319-426) (antibody)”, for which the Immunoreactivity in test [1] came out at 75.1%.

Turning to “In-111-MX-DTPA-Maleimide-S(Cys)-L19-SIP-R (R=reduced) (from UniProt P01854 319-426) (antibody)”, the Immunoreactivity in [1] was found to be 88.5%.

Turning to “In-111-MX-DTPA-ε-HN(Lys)-L19-SIP (from UniProt P01854 319-426) (antibody)”, the Immunoreactivity in test [1] is 77.5%.

For the substance “Lu-177-DOTA-C-Benzyl-p-NCS-ε-HN(Lys)-L19-SIP (from UniProt P01854 319-426) (antibody)”, in [1], the Immunoreactivity was found to be 73.4%.

For the substance “Re-188-L19-SIP (from UniProt P01854 319-426) (antibody)”, the Immunoreactivity in test [1] was 91.7%.

In the case of “Tc-99m-L19-SIP (from UniProt P01854 319-426) (antibody)”, in test [1], the Immunoreactivity was determined as 91.4%.

For the substance “Tc-99m-MAG2-ε-HN(Lys)-L19-SIP (from UniProt P01854 319-426) (antibody)”, the Immunoreactivity in test [1] was 81.1%.

As for “Y-88-MX-DTPA-ε-HN(Lys)-L19-SIP (from UniProt P01854 319-426) (antibody)”, in test [1], the Immunoreactivity is 70.5%.

Consider “radioiodinated (125I) L19-IgG1 (from UniProt P01857 1-330) (antibody)”, for which the Immunoreactivity (I), % of the value before i.v. injection was found to be 95% in test [4]; 100% in test [5]; 100% in [7]; 100% in test [8]; 95% in test [9]; 100% in [10]. Also, the Immunoreactivity in test [6] is > 90%.

In the case of “radioiodinated (125I) L19-SIP (from UniProt P01854 319-426) (antibody)”, the Immunoreactivity (I), % of the value before i.v. injection in test [4] is 95%; in test [5], 100%; in test [7], 100%; in [8] it was 100%; in test [9], 100%; in [10], 95%. In [6], the Immunoreactivity is > 90%.

With radioiodinated (125I) scFv(L19)2, the Immunoreactivity (I), % of the value before i.v. injection in [4] amounted to 4%; in test [5], 32%; in test [7] it was 36%; in test [8], 9%; in test [9], 27%; in test [10] it was 14%. Besides, the Immunoreactivity in [6] was > 90%.

Source of the values: patent publication US20050074401A1.
